Assay results taken from US20240317847A1 (Bayer, published 2024).
Where a chain is given by its changes, count along the chain named. Names may count otherwise. Each block holds one binder with its values, some of them ahead of it.

What was measured:
[1] = biological target: T1, human IL-11 (Invigate, e.g., lot #C121021-19) (human, UniProt P20809 22-199); test: ELISA, receptor-Fc titrated on biotinylated IL-11 captured on streptavidin plate; species of IL-11 not said
T1 construct: Bought protein; also called hIL-11; hIL11
T1 sequence: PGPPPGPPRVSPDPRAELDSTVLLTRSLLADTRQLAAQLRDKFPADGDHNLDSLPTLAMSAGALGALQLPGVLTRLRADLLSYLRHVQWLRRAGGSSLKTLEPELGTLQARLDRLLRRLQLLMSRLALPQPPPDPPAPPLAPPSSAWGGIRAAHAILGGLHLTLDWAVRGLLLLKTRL

[2] = biological target: T2, murine IL-11 (Invigate, e.g., lot #C210819-09) (mouse, UniProt P47873 22-199); test: as above
T2 construct: Bought protein; biotinylated where captured on streptavidin plates; also called mIL-11; mIL11
T2 sequence: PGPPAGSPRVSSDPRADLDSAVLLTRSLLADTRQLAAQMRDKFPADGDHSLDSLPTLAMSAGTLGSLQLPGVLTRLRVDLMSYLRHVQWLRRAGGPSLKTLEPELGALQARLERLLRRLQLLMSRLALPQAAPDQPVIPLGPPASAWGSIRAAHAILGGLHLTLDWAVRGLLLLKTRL

[3] = biological target: T1, human IL-11 (Invigate, e.g., lot …); test: SPR, Biacore 8K; antibody captured on anti-human IgG Fc chip, IL-11 analyte 0-50 nM, 1:1 fit
Experimental: (§1) Antibody binding affinity to hIL-11 (Invigate, Germany, e.g., lot #C121021-19) and mIL-11 (Invigate, Germany, e.g., lot #C210819-09) was detected using Biacore 8K. Each antibody was captured on an anti-human IgG Fc antibody immobilized CM5 sensor chip (GE). hIL-11 and mIL-11 at different concentrations (0, 5, 15.82 and 50 nM) in 1×HBS-EP+ (pH 7.4) (GE healthcare) were injected over the sensor chip at a flow rate of 30 μL/min for an association phase of 120 s, followed by 200 s dissociation phase. The chip was then regenerated by 10 mM Glycine, pH 1.5 after each binding cycle.
The sensorgrams of blank surface and buffer channel were subtracted from the test sensorgrams. The experimental data was fitted by 1:1 model using Langmiur analysis. Molecular weight of 19.3 kDa was used to calculate the molar concentration of human and mouse IL-11.

[4] = biological target: T2, murine IL-11 (Invigate, e.g., lot …); test: SPR, Biacore 8K; antibody captured on anti-human IgG Fc chip
Experimental: as §1

[5] = biological target: T3, human IL2Ra (human, UniProt P01589 22-240, limits assumed); test: ELISA on coated IL2Ra, signal ratio to isotype control at 1E-07 M antibody
T3 construct: coated on the ELISA plate; also called IL-2 receptor alpha
T3 sequence (looked up): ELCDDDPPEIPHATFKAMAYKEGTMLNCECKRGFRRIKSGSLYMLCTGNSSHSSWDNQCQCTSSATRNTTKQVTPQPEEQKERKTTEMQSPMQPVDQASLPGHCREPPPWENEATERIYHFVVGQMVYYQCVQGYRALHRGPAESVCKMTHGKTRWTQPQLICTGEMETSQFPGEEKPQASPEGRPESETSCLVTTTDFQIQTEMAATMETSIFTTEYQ
Experimental: IL2RA (Peprotech, Germany, #200-02RC) was coated at 1 or 0 μg/ml (buffer only control) in 30 μl coating buffer (Candor, #113500) per well on a 384 well microtiter plate (Maxisorb, Nunc, #460518) over night at 4-8° C. After two washes with 50 μl/well washing buffer (PBS+0.05% Tween, pH 7.4), the plates were incubated for two hours at room temperature with 50 μl/well SmartBlock (Candor, #113500). After blocking, the plates were washed three times with washing buffer. Then, a dilution series of the respective antibody (1E-7 [M] down to 2E-13 [M]) in PBS+0.05% Tween, 10% SmartBlock were added in 30 μl to the microtiter plate and incubated for 90 min at room temperature. After three additional washes, 30 μl anti mouse IgG HRP-conjugated antibody (Biotechne, HAF007), diluted 1:1000 in PBS+0.05% Tween (pH 7.4), were added per well and incubated for one hour. After three additional washes, a mixture of Amplex red (Invitrogen, #12222, 10 mM stock solution in DMSO) 1:1000 diluted in PBS and H2O2 (30%, Merck, #107209)) diluted 1:10000 in PBS were added as substrate with 30 μl per well and incubated for 20 min in the dark. Relative fluorescence was measured with a microtiter plate reader at 535/590 nm.
Bispecific antibodies were subjected to the experimental assay procedure described in Example 20. Ratios of the signals generated at an antibody concentration of 1E-07 [M] by the respective bispecific antibody versus those of an isotype control antibody were calculated and are shown in Table E29. The bispecific antibodies show no binding to IL-2 Ra.

[6] = biological target: T4, human IL-11 (human, UniProt P20809 22-199); test: Di-complex ELISA, canine IL11RA-hFc binding to immobilized hIL-11, competition
T4 construct: Invigate recombinant protein; biotinylated when immobilized in the Di-complex ELISA; also called hIL11; hIL-11
T4 sequence: T1 sequence
Experimental: (§2) In the Di-complex ELISA format anti IL-11 antibodies are tested for the ability to interfere with the formation of complexes consisting of immobilized murine IL-11 (Invigate, e.g., lot #C210819-09) or human IL-11 (Invigate, e.g., lot #C121021-19), and murine IL11RA-Fc fusion proteins or canine IL11RA-human-Fc fusion protein (FIG. 17a, b).
(§3) Bispecific antibodies were subjected to the experimental assay procedure described in Example 18 and IC50 [M], respectively efficacy (%) were calculated accordingly.

[7] = biological target: T5, murine IL-11 (mouse, UniProt P47873 22-199); test: SPR (Biacore), 25 C, antibody captured via anti-Fc, IL-11 as analyte
T5 construct: Invigate recombinant protein; biotinylated when immobilized in the Di-complex ELISA; also called mIL11; mIL-11
T5 sequence: T2 sequence
Experimental: (§4) To assess the binding kinetics and affinity of anti-IL-11 bispecific antibodies as well as their species cross-reactivity profile, binding assays were conducted using surface plasmon resonance (SPR). […] Antibodies were captured either via anti-human Fc IgGs (“Human antibody capture kit”, Order No. BR100839, Cytiva) or via anti-mouse Fc IgGs (“Mouse antibody capture kit, Order No. BR100383, Cytiva) covalently amine coupled to a Series S CM5 sensor chip (Cytiva) depending on the isotype. The amine coupling was carried out according to the manufacturer's instructions using 1-ethyl-3-(3-dimethylaminopropyl) carbodiimide hydrochloride (EDC), N-hydroxysuccinimide (NHS) and ethanolamine HCl, pH 8.5 (“Amine Coupling Kit” BR-1000-50, Cytiva.). Human, mouse, cynomolgus or rat IL-11 was used as analyte at several dilutions within the concentration range from 0.05-200 nM. For binding assays with only one concentration 200 nM IL-11 was used. The sensor surface was regenerated with glycine pH 1.7 after each antigen injection. Obtained sensorgrams were double referenced (subtraction of reference flow cell signal and buffer injection) and were fitted to a 1:1 Langmuir binding model to derive kinetic data using the Biacore T200 Evaluation software or the Biacore Insight software.
(§5) If no value is reported, there was either no binding or very low binding and multiphasic binding behavior.

[8] = biological target: T4, human IL-11; test: as above
Experimental: as §4, §5

[9] = biological target: T6, rat IL-11 (rat, UniProt Q99MF5 22-199); test: as above
T6 construct: Invigate recombinant protein; also called rIL11
T6 sequence: T2 sequence with S50N, L84F, G94A, V137A, I138V
Experimental: as §4, §5

[10] = biological target: T7, cynomolgus IL-11 (cynomolgus, UniProt P20808 22-199); test: as above
T7 construct: Invigate recombinant protein; also called cIL11; Macaca IL-11
T7 sequence: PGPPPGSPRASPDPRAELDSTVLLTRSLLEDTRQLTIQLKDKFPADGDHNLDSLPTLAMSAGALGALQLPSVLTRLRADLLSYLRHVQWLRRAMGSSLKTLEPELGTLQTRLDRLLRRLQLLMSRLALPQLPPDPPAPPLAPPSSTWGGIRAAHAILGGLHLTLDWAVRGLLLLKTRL
Experimental: as §4, §5

[11] = biological target: T5, murine IL-11; test: Tri-complex ELISA, mIL-11 + mIL-11Ra-Fc + mgp130-Fc, inhibition of complex formation
Experimental: (§6) In the Tri-complex ELISA format IL-11 antibodies are tested for their ability to inhibit the formation of a complex consisting of murine or human gp130-Fc fusion protein, with murine or human IL-11, and a murine IL11RA-Fc fusion protein. The assay format was adapted according to FIG. 18 (a, b), depending on whether murine or human IL-11 IgG antibodies were tested.
(§7) Bispecific antibodies were subjected to the experimental assay procedure described in Example 19 and IC50 [M], respectively efficacy (%) were calculated accordingly.

[12] = biological target: T5, murine IL-11; test: cell-based or functional assay
[13] = biological target: T4, human IL-11; test: cell-based or functional assay
[14] = biological target: T4, human IL-11; test: Tri-complex ELISA, hIL-11 + mIL-11Ra-Fc + hgp130-Fc, inhibition of complex formation
Experimental: as §6, §7

[15] = biological target: T5, murine IL-11; test: Di-complex ELISA, canine IL11RA-hFc binding to immobilized mIL-11, competition
Experimental: as §2, §3

EC50 [1]: ~2 nM
EC50 [2]: ~2 nM
B1: canine IL11RA-human-Fc fusion protein (Sino Biological, #70078-D02H) (Fc fusion)
chain: SPCPQAWGPPGVQYGQPGRSMTLCCPGVTAGAPVSWFRDGETRLLQGPDSGLGHELVLAQADSTDEGTYICRTLDGALGGIVTLQLGYPPARPVVSCQAADYENFSCTWSPSQVSGLPTRYLTSYRKKTVPGADGQRMSPSTGPWPCPQDPPGAARCVVHGAEFWSQYRINVTEVNPLGTSTRLLDVSLQSILRPDPPQGLRVESVPGYPRRLRASWTYPASWPRQPHFLLRFRLQYRPAQHPAWSTVEPAGLEEVITDAVAGLPHAVRVSARDFLDAGTWSAWSPEAWGTPSTGSLPKEIPAGGQPRKQLEEEPQADSPTPPRPSLLPDPRPLDQRDPLEQIAVLA
notes: Used in the Di-complex ELISA when murine IgGs were tested; also called canine IL11RA-Fc; Canine IL-11Ra fused to human Fc; not shown: human Fc (and any linker) of the bought fusion protein, Sino Biological #70078-D02H

Kd [3]: 600 nM
B2: TPP-31280 (antibody, human IgG4, V domains shown)
VH: EVQLLESGGGLVQPGGSLRLSCAASGFTFSHYDMNWLRQAPGKGLEWVGVISYDGSNKFYADFVKGRFTISRDNSKNTLYLQMNSLRAEDTAVYYCARTPGSHFDYWGQGTLVTVSS
VL: QSVLTQPPSASGTPGQRVTISCSGSSSNIGNNAVNWYQQLPGTAPKLLIYRDDLLPSGVPDRFSGSKSGTSASLAISGLRSEDEADYYCSAWDDSLNGVVFGGGTKLTVL
notes: consecutive numbering; also called VL-Y51R
binding result [4]: no binding (tested: 50 nM (highest IL-11 concentration))

Ratio IL-2Ra Binding Signal Antibody/Isotype Control [5]: 146 ratio
IC50 [6]: 6.3 nM
Kd [7]: 0.046 nM
Kd [8]: 0.083 nM
Kd [9]: 0.045 nM
Kd [10]: 0.074 nM
Efficacy (%) [11]: 98%
IC50 [11]: 0.258 nM
Efficacy (%), Stat3 reporter gene assay [12]: 96.9%
IC50, Stat3 reporter gene assay [12]: 1.8 nM
Efficacy (%), Stat3 reporter gene assay [13]: 88.5%
IC50, Stat3 reporter gene assay [13]: 0.65 nM
Efficacy (%) [14]: 98%
IC50 [14]: 1.28 nM
IC50 [15]: 4.1 nM
B3: TPP-26195 (bispecific antibody, IgG1)
chain 1: EVQLLESGGGLVQPGGSLRLSCAASGFTFSSYGMHWVRQAPGKGLEWVSVISYDGSYKYYADSVKGRFTISRDNSKNTLYLQMNSLRAEDTAVYYCAAGVPDYWGQGTLVTVSSGGGGSGGGGSGGGGSQSVLTQPPSASGTPGQRVTISCTGSSSNIGAGYDVHWYQQLPGTAPKLLIYSNNERPSGVPDRFSGSKSGTSASLAISGLRSEDEADYYCAAWDDSLNGPVFGGGTKLTVLGGGGSGGGGSGGGGSGVECPPCPAPPVAGPSVFIFPPKPKDVLTITLTPKVTCVVVDISKDDPEVQFSWFVDDVEVHTAQTQPREEQFNSTFRSVSELPIMHQDWLNGKEFKCRVNSAAFPAPIEKTISKTKGRPKAPQVYTIPPPKEQMAKDKVSLWCMITDFFPEDITVEWQWNGQPAENYKNTQPIMDTDGSYFVYSKLNVQKSNWEAGNTFTCSVLHEGLHNHHTEKSLSHSPGK
chain 2: EVQLLESGGGLVQPGGSLRLSCAASGFTFSHYDMNWLRQAPGKGLEWVGVISYDGSNKFYADFVKGRFTISRDNSKNTLYLQMNSLRAEDTAVYYCARTPGSHFDYWGQGTLVTVSSGGGGSGGGGSGGGGSQSVLTQPPSASGTPGQRVTISCSGSSSNIGNNAVNWYQQLPGTAPKLLIYYDDLLPSGVPDRFSGSKSGTSASLAISGLRSEDEADYYCSAWDDSLNGVVFGGGTKLTVLGGGGSGGGGSGGGGSGVECPPCPAPPVAGPSVFIFPPKPKDVLTITLTPKVTCVVVDISKDDPEVQFSWFVDDVEVHTAQTQPREEQFNSTFRSVSELPIMHQDWLNGKEFKCRVNSAAFPAPIEKTISKTKGRPKAPQVYTIPPPKEQMAKDKVSLSCAITDFFPEDITVEWQWNGQPAENYKNTQPIMDTDGSYFVVSKLNVQKSNWEAGNTFTCSVLHEGLHNHHTEKSLSHSPGK
notes: scFv-kih-mIgG1
